# What was measured:
# [1] = Oxidase activity testing, lyophilised recombinant P450/ferredoxin SeuF08/ferredoxin reductase SCF15A against ambroxide; format: biochemical
# Protocol: (§1) Lyophilised material of recombinant P450, ferredoxin and ferredoxin reductase proteins was made as described in Example 4 and reconstituted in high purity water to the original volume. Biocatalysis was performed with shaking incubation at 27° C. in the following conditions: 100 mM potassium phosphate pH 8.0, 5 mM MgCl2 (both present in the reconstituted enzyme preparation) and 0.1 mg/ml substrate compound such as ambroxide (Sigma-Aldrich, UK), carbamazepine (Sigma-Aldrich, UK), diclofenac (Sigma-Aldrich, UK), tivantinib (MedChemtronica, Sweden), clarithromycin (Tokyo Chemical Industry, Japan), sclareol (Sigma-Aldrich, UK), celecoxib (LC Laboratories, USA), buparvaquone (Sigma-Aldrich, UK), BIRB796 (MedChemExpress, USA), vanoxerine (CiVentiChem, USA), valsartan (Tokyo Chemical Industry, Japan), ruxolitinib (LC Laboratories, USA), perindopril (Selleckchem, USA), solifenacin (Key Organics, UK), 7-ethoxycoumarin (Tokyo Chemical Industry, Japan), tofacitinib (LC Laboratories, USA), ebastine (Key Organics, UK), efavirenz (Key Organics, UK), propanalol (Sigma-Aldrich, UK) and tolbutamide (Key Organics, UK).
# (§2) Concentrations of P450, ferredoxin and ferredoxin reductase were as extracted (Example 4). Reactions were initiated by addition of 10× stock of cofactor mixture (50 mM G6P, 10 mM NADP+, 10 UN/ml G6PDH) to provide a final volume of e.g., 10 μl to 90 μl for 100 μl total reaction volumes. After 16-20 hours, reactions were extracted with an equal volume of acetonitrile, centrifuged to remove precipitated proteins and conversion assessed by UPLC-MS analysis.
# (§3) UPLC Data were Obtained as Follows: • Column: Acquity UPLC BEH Shield RP18 1.7 μm 2.1 mm i.d. 50 mm length • Solvents: H2O, B: Acetonitrile, both with 0.1% Formic acid • Flow rate: 1.0 ml/min • Detector: Waters Acquity UPLC PDA (UV-Vis detection) and Waters Acquity UPLC QDA (MS)
# (§4) To confirm the identities of reaction products where known, their chromatographic retention time, mass and ultraviolet spectra were compared with those of authentic metabolite standards.
# Representative results for the % conversions of ambroxide to oxidised (+16 Da) products for single point mutants at position T109 are shown in Table 2 below.
# [2] = Oxidase activity testing against carbamazepine; format: biochemical; settings: for +16 Da (1.18 min) 253 m/z: 2-hydroxycarbamazepine; for +16 Da (1.18 min) 253 m/z / +16 Da (1.14 min) 253 m/z / Parent (1.31 min) 237 m/z: relative MS peak area; for +16 Da (1.14 min) 253 m/z: carbamazepine epoxide; for Parent (1.31 min) 237 m/z: remaining carbamazepine, 0.1 mg/ml, 27° C., 16-20 hours; for Average % conversion: substrate carbamazepine, relative MS peak areas
# Protocol: as §1, §2, §3, §4
# Representative results for the % conversions of carbamazepine to oxidised (+16 Da) products for single point mutants at position L198 are shown in Table 3 below.
# [3] = oxidised ambroxide product, relative MS peak area
+16 Da (1.18 min) 253 m/z [2],+16 Da (1.14 min) 253 m/z [2],Parent (1.31 min) 237 m/z [2],Molecule,"+16 Da (1.50 min) 253 m/z [1, 3]","+16 Da (1.60 min) 253 m/z [1, 3]","+16 Da (2.04 min) 253 m/z [1, 3]","Ambroxide (2.22 min) 237 m/z ([1]; remaining substrate, relative MS peak area, 0.1 mg/ml ambroxide, 27° C., 16-20 hours)","Average % conversion ([1]; substrate ambroxide, relative MS peak areas)",Average % conversion [2]
,,,"SeuC10M1: P450SeuC10 with T109R mutation, SEQ ID NO: 6 (protein, SeuC10M1) MKIGTTHLTRLRGLSMTELTDITGPAAQAETVAFPQDRTCPYHPPTGYDPLRDGRPLSRVTLYDGREVWLVTAQATARALLADPRLSTDRRRDGFPVPTPRFAAGRDRRLALLGLDDPEHHRQRRLLIPSFTLKRATAQRPWIQRIVDELLDAMIARGPVADLVSAFALPVPSMVICELLGVPYADHEFFEEQSRRLLRGPTGADTTDARDRLEAYLGDLIDAKAKEAEPGDGILDDLVHNRLRAGELDRSVLVSLAVILLVAGHETTANMISLGTYTLLQHPERLAELRADPSLLPAVVEELLRMLSIAEGLQRLALEDIEIDGITIRAGEGVLFSTSVINRDTAVYEDPDDLDFHRADRHHVAFGFGIHQCLGQNLARAELEIALGSLFTRLPGLRLAAPAEEIPFKPGDTVQGMLELPVTW",40.7%,0.0%,0.0%,59.3%,40.7%,
0.0%,1.9%,98.1%,"SeuC10M16: P450SeuC10 with L198N mutation, SEQ ID NO: 36 (protein, SeuC10M16) MKIGTTHLTRLRGLSMTELTDITGPAAQAETVAFPQDRTCPYHPPTGYDPLRDGRPLSRVTLYDGREVWLVTAQATARALLADPRLSTDRRRDGFPVPTPRFAAGRDRTLALLGLDDPEHHRQRRLLIPSFTLKRATAQRPWIQRIVDELLDAMIARGPVADLVSAFALPVPSMVICELLGVPYADHEFFEEQSRRLNRGPTGADTTDARDRLEAYLGDLIDAKAKEAEPGDGILDDLVHNRLRAGELDRSVLVSLAVILLVAGHETTANMISLGTYTLLQHPERLAELRADPSLLPAVVEELLRMLSIAEGLQRLALEDIEIDGITIRAGEGVLFSTSVINRDTAVYEDPDDLDFHRADRHHVAFGFGIHQCLGQNLARAELEIALGSLFTRLPGLRLAAPAEEIPFKPGDTVQGMLELPVTW",,,,,,1.9%
0.0%,3.2%,96.8%,"SeuC10M17: P450SeuC10 with L198D mutation, SEQ ID NO: 38 (protein, SeuC10M17) MKIGTTHLTRLRGLSMTELTDITGPAAQAETVAFPQDRTCPYHPPTGYDPLRDGRPLSRVTLYDGREVWLVTAQATARALLADPRLSTDRRRDGFPVPTPRFAAGRDRTLALLGLDDPEHHRQRRLLIPSFTLKRATAQRPWIQRIVDELLDAMIARGPVADLVSAFALPVPSMVICELLGVPYADHEFFEEQSRRLDRGPTGADTTDARDRLEAYLGDLIDAKAKEAEPGDGILDDLVHNRLRAGELDRSVLVSLAVILLVAGHETTANMISLGTYTLLQHPERLAELRADPSLLPAVVEELLRMLSIAEGLQRLALEDIEIDGITIRAGEGVLFSTSVINRDTAVYEDPDDLDFHRADRHHVAFGFGIHQCLGQNLARAELEIALGSLFTRLPGLRLAAPAEEIPFKPGDTVQGMLELPVTW",,,,,,3.2%
0.0%,14.6%,85.4%,"SeuC10M18: P450SeuC10 with L198H mutation, SEQ ID NO: 40 (protein, SeuC10M18) MKIGTTHLTRLRGLSMTELTDITGPAAQAETVAFPQDRTCPYHPPTGYDPLRDGRPLSRVTLYDGREVWLVTAQATARALLADPRLSTDRRRDGFPVPTPRFAAGRDRTLALLGLDDPEHHRQRRLLIPSFTLKRATAQRPWIQRIVDELLDAMIARGPVADLVSAFALPVPSMVICELLGVPYADHEFFEEQSRRLHRGPTGADTTDARDRLEAYLGDLIDAKAKEAEPGDGILDDLVHNRLRAGELDRSVLVSLAVILLVAGHETTANMISLGTYTLLQHPERLAELRADPSLLPAVVEELLRMLSIAEGLQRLALEDIEIDGITIRAGEGVLFSTSVINRDTAVYEDPDDLDFHRADRHHVAFGFGIHQCLGQNLARAELEIALGSLFTRLPGLRLAAPAEEIPFKPGDTVQGMLELPVTW",,,,,,14.6%
0.0%,3.9%,96.1%,"SeuC10M19: P450SeuC10 with L198Y mutation, SEQ ID NO: 42 (protein, SeuC10M19) MKIGTTHLTRLRGLSMTELTDITGPAAQAETVAFPQDRTCPYHPPTGYDPLRDGRPLSRVTLYDGREVWLVTAQATARALLADPRLSTDRRRDGFPVPTPRFAAGRDRTLALLGLDDPEHHRQRRLLIPSFTLKRATAQRPWIQRIVDELLDAMIARGPVADLVSAFALPVPSMVICELLGVPYADHEFFEEQSRRLYRGPTGADTTDARDRLEAYLGDLIDAKAKEAEPGDGILDDLVHNRLRAGELDRSVLVSLAVILLVAGHETTANMISLGTYTLLQHPERLAELRADPSLLPAVVEELLRMLSIAEGLQRLALEDIEIDGITIRAGEGVLFSTSVINRDTAVYEDPDDLDFHRADRHHVAFGFGIHQCLGQNLARAELEIALGSLFTRLPGLRLAAPAEEIPFKPGDTVQGMLELPVTW",,,,,,3.8%
0.0%,40.5%,59.5%,"SeuC10M12: P450SeuC10 with L198M mutation, SEQ ID NO: 28 (protein, SeuC10M12) MKIGTTHLTRLRGLSMTELTDITGPAAQAETVAFPQDRTCPYHPPTGYDPLRDGRPLSRVTLYDGREVWLVTAQATARALLADPRLSTDRRRDGFPVPTPRFAAGRDRTLALLGLDDPEHHRQRRLLIPSFTLKRATAQRPWIQRIVDELLDAMIARGPVADLVSAFALPVPSMVICELLGVPYADHEFFEEQSRRLMRGPTGADTTDARDRLEAYLGDLIDAKAKEAEPGDGILDDLVHNRLRAGELDRSVLVSLAVILLVAGHETTANMISLGTYTLLQHPERLAELRADPSLLPAVVEELLRMLSIAEGLQRLALEDIEIDGITIRAGEGVLFSTSVINRDTAVYEDPDDLDFHRADRHHVAFGFGIHQCLGQNLARAELEIALGSLFTRLPGLRLAAPAEEIPFKPGDTVQGMLELPVTW",,,,,,40.5%
0.0%,35.3%,64.7%,"SeuC10M8: P450SeuC10 with L198I mutation, SEQ ID NO: 20 (protein, SeuC10M8) MKIGTTHLTRLRGLSMTELTDITGPAAQAETVAFPQDRTCPYHPPTGYDPLRDGRPLSRVTLYDGREVWLVTAQATARALLADPRLSTDRRRDGFPVPTPRFAAGRDRTLALLGLDDPEHHRQRRLLIPSFTLKRATAQRPWIQRIVDELLDAMIARGPVADLVSAFALPVPSMVICELLGVPYADHEFFEEQSRRLIRGPTGADTTDARDRLEAYLGDLIDAKAKEAEPGDGILDDLVHNRLRAGELDRSVLVSLAVILLVAGHETTANMISLGTYTLLQHPERLAELRADPSLLPAVVEELLRMLSIAEGLQRLALEDIEIDGITIRAGEGVLFSTSVINRDTAVYEDPDDLDFHRADRHHVAFGFGIHQCLGQNLARAELEIALGSLFTRLPGLRLAAPAEEIPFKPGDTVQGMLELPVTW",,,,,,35.3%
0.0%,43.7%,56.3%,"SeuC10M14: P450SeuC10 with L198V mutation, SEQ ID NO: 32 (protein, SeuC10M14) MKIGTTHLTRLRGLSMTELTDITGPAAQAETVAFPQDRTCPYHPPTGYDPLRDGRPLSRVTLYDGREVWLVTAQATARALLADPRLSTDRRRDGFPVPTPRFAAGRDRTLALLGLDDPEHHRQRRLLIPSFTLKRATAQRPWIQRIVDELLDAMIARGPVADLVSAFALPVPSMVICELLGVPYADHEFFEEQSRRLVRGPTGADTTDARDRLEAYLGDLIDAKAKEAEPGDGILDDLVHNRLRAGELDRSVLVSLAVILLVAGHETTANMISLGTYTLLQHPERLAELRADPSLLPAVVEELLRMLSIAEGLQRLALEDIEIDGITIRAGEGVLFSTSVINRDTAVYEDPDDLDFHRADRHHVAFGFGIHQCLGQNLARAELEIALGSLFTRLPGLRLAAPAEEIPFKPGDTVQGMLELPVTW",,,,,,43.7%

# From US20240263208A1, “CYTOCHROME P450 ENZYME” (HYPHA DISCOVERY LTD., priority 2021, published 2024)
